In assay [1] the target is Human tyrosinase (human), P14679. Briefly: cell-based or functional assay.
The target of assay [2] is Mushroom tyrosinase (mushroom), C7FF04. Briefly: cell-based or functional assay.

Data on 4 molecules can be found in US20150118286A1.

Human tyrosinase (human), P14679, sequence (P14679 19-529): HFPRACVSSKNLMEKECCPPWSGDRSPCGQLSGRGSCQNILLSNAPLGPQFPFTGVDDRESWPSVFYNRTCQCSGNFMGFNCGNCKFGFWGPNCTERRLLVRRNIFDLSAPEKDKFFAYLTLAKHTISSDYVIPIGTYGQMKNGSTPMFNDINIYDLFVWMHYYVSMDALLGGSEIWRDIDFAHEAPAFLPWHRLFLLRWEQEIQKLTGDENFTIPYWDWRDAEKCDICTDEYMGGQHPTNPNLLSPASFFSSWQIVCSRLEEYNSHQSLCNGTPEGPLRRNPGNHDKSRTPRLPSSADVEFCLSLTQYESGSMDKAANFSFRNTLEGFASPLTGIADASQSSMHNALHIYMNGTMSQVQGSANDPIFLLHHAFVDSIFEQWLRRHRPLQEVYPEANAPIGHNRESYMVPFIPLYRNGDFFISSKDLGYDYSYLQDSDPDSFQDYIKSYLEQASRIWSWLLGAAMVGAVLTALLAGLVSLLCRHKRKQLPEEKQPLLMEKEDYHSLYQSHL

As for RRWWRRYY [P16 peptide], in assay [1], the reduction of total melanin content in MNTI cells (3 days, peptide at twice the IC50) is 45%.
The molecule RRFVCC (modifications not checked) [P15 peptide] registered an IC50 [µM], mushroom tyrosinase inhibition (dopachrome OD 475 nm, L-tyrosine substrate) in assay [2] of 1120 µM.
In the case of RRRYWYYR [P17 peptide], the reduction of total melanin content in MNTI cells (3 days, peptide at twice the IC50) in assay [1] is 38%.
Take RRYWYWRR [P18 peptide]: the reduction of total melanin content in MNTI cells (3 days, peptide at twice the IC50) in assay [1] came out at 41%.
